Target: PARP (poly(ADP-ribose) polymerase), purified (Homo sapiens, UniProt P09874 P09874:2-1014)
Assay: EMSA; 10 ng PARP; retarded band at position different from nuclear extract complex; room temperature, 2 mM MgCl2, 50 mM NaCl
Settings: tags: Trevigen Inc; label: 32P
Experimental: Biophys. Acta, 1219, 241-243) and stored at −80° C. until use. GMSA was performed by the method of Garabedian (Garabedian, M. J. et al. Analysis of protein—DNA interactions in Gene Transcription: A practical approach (Hamesm, B. D., and Higgins, S. J. eds.), pp. 243-293, IRL Press, Oxford (1993)). The nuclear extract (10 μg) was incubated in a final volume of 20 μl of buffer containing 20 mM Tris-HCl (pH 7.9), 2 mM MgCl₂, 50 mM NaCl, 2 mM EDTA, 10% glycerol, 0.1% Nonidet P-40, 1 mM DTT, 50 μg/ml bovine serum albumin and 1 μg of poly(dI-dC). After incubation for 10 min at room temperature, 2.5 pmol of double-stranded DNA, previously labeled by an exchange reaction using MEGALABEL™ (Takara Shuzo) and [γ-³²P]ATP (Amersham Pharmacia Biotech), were added and incubated for 30 min at room temperature, then the binding reactions were resolved on pre-run 6% acrylamide gel. When competition experiments were conducted in the presence of 100-fold molar excess of cold probe, an unlabeled competitor was added with the labeled probe. In the supershift assay, 2 μg of anti-Sp1, -Sp2, -Sp3 or -Sp4 antibody (Santa Cruz) were added prior to the addition of the ³²P-probe. […] DNA was detected by immunoblot using an ECL 3′-oligolabelling and detection system (Amersham Pharmacia Biotech). […]

Sequence of PARP (poly(ADP-ribose) polymerase), purified (P09874 2-1014, one chain of several): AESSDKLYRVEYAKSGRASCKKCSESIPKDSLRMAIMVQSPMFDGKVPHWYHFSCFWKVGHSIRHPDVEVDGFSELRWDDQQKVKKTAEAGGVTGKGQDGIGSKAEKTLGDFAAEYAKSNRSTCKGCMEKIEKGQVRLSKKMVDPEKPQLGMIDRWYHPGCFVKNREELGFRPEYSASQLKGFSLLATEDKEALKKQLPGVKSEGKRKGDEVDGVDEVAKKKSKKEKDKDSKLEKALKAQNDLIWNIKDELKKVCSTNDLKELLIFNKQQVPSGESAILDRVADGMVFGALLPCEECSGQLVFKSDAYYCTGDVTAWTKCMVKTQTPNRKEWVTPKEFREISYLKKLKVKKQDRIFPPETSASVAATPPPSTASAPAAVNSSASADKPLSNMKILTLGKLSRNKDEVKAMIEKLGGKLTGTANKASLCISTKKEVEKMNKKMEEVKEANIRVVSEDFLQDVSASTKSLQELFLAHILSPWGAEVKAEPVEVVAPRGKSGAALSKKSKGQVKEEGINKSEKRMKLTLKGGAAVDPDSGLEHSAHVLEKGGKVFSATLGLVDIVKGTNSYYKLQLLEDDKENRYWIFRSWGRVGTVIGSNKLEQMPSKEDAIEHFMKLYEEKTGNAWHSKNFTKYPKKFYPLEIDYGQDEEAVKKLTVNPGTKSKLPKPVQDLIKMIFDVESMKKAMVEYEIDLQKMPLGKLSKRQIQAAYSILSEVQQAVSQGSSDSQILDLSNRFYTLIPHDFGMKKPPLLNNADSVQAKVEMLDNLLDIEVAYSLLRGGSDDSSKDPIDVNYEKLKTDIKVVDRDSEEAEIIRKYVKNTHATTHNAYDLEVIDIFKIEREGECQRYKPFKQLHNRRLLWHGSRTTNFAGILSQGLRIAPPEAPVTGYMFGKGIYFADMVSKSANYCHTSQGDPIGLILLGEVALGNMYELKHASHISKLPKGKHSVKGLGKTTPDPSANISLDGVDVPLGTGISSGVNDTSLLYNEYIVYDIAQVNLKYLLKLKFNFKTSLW

B1: Probe 1 (rat Reg -86 to -65) (dsDNA)
DNA 1: TTCCTTGCCCCTCCCATTTTTC
DNA 2: GAAAAATGGGAGGGGCAAGGAA
binding result: binds
